# In patent US20110009597A1, “RECOMBINANT GANODERMA LUCIDIUM IMMUNOMODULATORY PROTEIN (rLZ-8) AND USES THEREOF” (priority 2008, published 2011):
# B1: rLZ-8: Recombinant Ganoderma Lucidum Immune Regulatory Protein expressed in Pichia pastoris (protein, UniProt P14945 2-111, looked up)
# Immunomodulatory protein Ling …: SDTALIFRLAWDVKKLSFDYTPNWGRGNPNNFIDTVTFPKVLTDKAYTYRVAVSGRNLGVKPSYAVESDGSQKVNFLEYNSGYGIADTNTIQVFVVDPDTNNDFIIAQWN
# Assays:
# [1] = system: Human Promyelocytic Leukemia NB4 Cells; test: Killing effect of rLZ-8 on NB4 cells (MTT, OD570nm); format: cell-based
# Protocol: After filtration and degerming, we prepared 8 concentrations using IMDM culture medium which are respectively 0.78 μg·ml^−1, 1.56 μg·ml^−1, 3.125 μg·ml^−1, 6.25 μg·ml^−1, 12.5 μg·ml^−1, 25 μg·ml^−1, 50 μg·ml^−1, 100 μg·ml^−1.
# On 96-orifice culture medium plate, the pilot orifice plus NB4 tumor cells 0.1 ml and rLZ-8 0.1 ml, rLZ-8 concentrates from low to high; negative control group plus NB4 tumor cells and culture medium of 0.1 ml respectively; positive drug control group arsenic trioxide As2O3; make six-aperture multipunches for each group. Placing in 37° C., 5% CO2 incubator 48 h, adding MTT15 μl (5 mg ml^−1) prior to the termination of 4 h, after the termination of cell culture by adding 100 μl 0.1 mol L^−1 hydrochloric acid isopropyl alcohol, testing on the enzyme-linked immunosorbent OD570nm values.
# [2] = system: Human Chronic Myelogenous Leukemia K562 Cells; test: Lethal effect of rLZ-8 on K562 cells (MTT, OD570nm); format: cell-based
# Protocol: After sterilization of rLZ-8, we prepared 6 concentrations using IMDM culture medium, which are respectively 3.125 μg·ml^−1, 6.25 μb·ml^−1, 12.5 μg·ml^−, 25 μg·ml^−1, 50 μg·ml^−1, 100 μg·ml^−1.
# On 96-orifice culture plate, the pilot aperture plus K562 tumor cells 0.1 ml and rLZ-8 0.1 ml, rLZ-8 concentrations from low to high; negative control group plus K562 tumor cells and culture medium of the 0.1 ml respectively; positive drug control group arsenic trioxide As2O3; make six-aperture multipunches for each group. Placing in 37° C., 5% CO2 incubator 48 h, adding MTT15 μl (5 mg ml^−1) prior to the termination of 4 h, after the termination of cell culture by adding 100 μl 0.1 mol L^−1 hydrochloric acid isopropyl alcohol, testing OD values570nm on the enzyme immunosorbent detector.
# NB4 = test: PI single stained flow cytometry, apoptosis of NB4; format: cell-based
# Protocol: Fluorescence microscope, model Leica ASLMD, K562, NB4. rLZ-8 is classified into high, medium and low three-dose groups respectively, now we prepare them with IMDM culture medium containing 2% FCS into the preparation of 2.5 μg·ml^−1, 0.5 μg/ml, 0.1 μg·ml^−1. […] (PI) 50 μg·ml ^−1.
# Establish K562 as the normal control group, rLZ-8 low-dose group (0.1 μg·ml^−1), rLZ-8 medium dose group (0.5 μg·ml^−1), rLZ-8 high-dose group, (2.5 μg·ml^−1); set NB4 as the normal control group, rLZ-8 low-dose group (0.1 μg·ml^−1), rLZ-8 medium dose group (0.5 μg·ml^−1), rLZ-8 high-dose group, (2.5 μg·ml^−1).
# Mix K562 and NB4 cells into 24-orifice plate respectively, and supply rLZ-8 in different concentrates, 1 ml/orifice, set 3-orifice multipunches for each group. Put them in 37° C., 5% CO2 incubator for 24 h, collect the cells of each concentrate, PBS washes twice and regulates the cell density to 1×10^6/ml, 70% ice ethanol fixation, adjusts to −20° C. and stays overnight. Wash the cells with PBS twice after fixing the cells, add PI (end density 50 μg·ml^−1) for room temperature and lucifuged hatching 10 min, 1000 r·min^−1 centrifuge 5 min, clear supernatant with disposable 400μ. IPBS re-suspension precipitation. And test on computer in 1 h.
# [3] = system: mouse peritoneal S180 tumor cells; test: S180 ascites tumor inhibition experiment; format: in vivo, Mice; conditions: rLZ-8 0.25-1 mg·kg^−1 tail venous injection, 10 days
# Protocol: (§1) Treatment after 24 h of vaccination. […] Daily weighing, observe the weight changes of mice, drawing weight growth curves.
# [4] = system: mouse peritoneal H22 tumor cells; test: H22 ascites tumor inhibition experiment; format: in vivo, Mice
# Protocol: Mouse hepatoma cell strain H22, offered by our laboratory.
# as §1
# spleen = test: Colony forming unit-spleen and spleen index in radiation model of mice; format: in vivo
# Protocol: rLZ-8 preparation of sterile saline. Divide them into 5 ∞g·kg^−1, 2.5 μg·kg^−1, 1.25 μg·kg^−1, 0.62 μg·kg^−1 dose groups. 0.2 ml/vial.
# Genlei™ Scimax™ [Recombinant human granulocyte colony-stimulating factor injection (rhG-CSF)], production lot: 20060403; 150m/vial is prepared with sterile normal saline into the preparation of 3.2 μg·kg^−1, 0.2 ml/vial.
# The mice were irradiated by 7.5 Gy γ-ray (180 mV, 15 mA) and then divided into seven groups (n=10): (A) negative control; (B) 5 μg·kg−1 dose; (C) 2.5 μg·kg−1 dose; (D) 1.25 μg·kg−1 dose; (E) 0.62 μg·kg−1 dose; (F) positive control (Genlei™ Scimax™); (G) model group. Together with modeling, mice in each group were administered with Genlei™ Scimax™ and rLZ-8 for 9 days, drew blood from tail, tested the number of WBC, weight spleen, calculated index of spleen.
molecule,measurement,setting,value
B1,lethal effect in vitro on NB4 tumor cells (in words),[1]; 0.78-100 μg·ml^−1,strong lethal effect
same,Growth inhibition rate (%),"[1]; rLZ-8 0.78 μg ml^−1, 48 h",39%
same,OD570 nm,"[1]; rLZ-8 0.78 μg ml^−1, 48 h",0.71 ± 0.03
same,Growth inhibition rate (%),"[1]; rLZ-8 1.56 μg ml^−1, 48 h",44%
same,OD570 nm,"[1]; rLZ-8 1.56 μg ml^−1, 48 h",0.65 ± 0.05
same,Growth inhibition rate (%),"[1]; rLZ-8 3.125 μg ml^−1, 48 h",54%
same,OD570 nm,"[1]; rLZ-8 3.125 μg ml^−1, 48 h",0.53 ± 0.04
same,Growth inhibition rate (%),"[1]; rLZ-8 6.25 μg ml^−1, 48 h",61%
same,OD570 nm,"[1]; rLZ-8 6.25 μg ml^−1, 48 h",0.45 ± 0.02
same,Growth inhibition rate (%),"[1]; rLZ-8 12.5 μg ml^−1, 48 h",74%
same,OD570 nm,"[1]; rLZ-8 12.5 μg ml^−1, 48 h",0.30 ± 0.04
same,Growth inhibition rate (%),"[1]; rLZ-8 25 μg ml^−1, 48 h",81%
same,OD570 nm,"[1]; rLZ-8 25 μg ml^−1, 48 h",0.22 ± 0.01
same,Growth inhibition rate (%),"[1]; rLZ-8 50 μg ml^−1, 48 h",91%
same,OD570 nm,"[1]; rLZ-8 50 μg ml^−1, 48 h",0.11 ± 0.01
same,Growth inhibition rate (%),"[1]; rLZ-8 100 μg ml^−1, 48 h",93%
same,OD570 nm,"[1]; rLZ-8 100 μg ml^−1, 48 h",0.08 ± 0.01
same,lethal effect in vitro on K562 tumor cells (in words),[2]; 3.125-100 μg·ml^−1,strong lethal effect
same,Growth inhibition rate (%),"[2]; rLZ-8 3.125 μg ml^−1, 48 h",34.7%
same,OD570 nm,"[2]; rLZ-8 3.125 μg ml^−1, 48 h",0.66 ± 0.03
same,Growth inhibition rate (%),"[2]; rLZ-8 6.25 μg ml^−1, 48 h",42.6%
same,OD570 nm,"[2]; rLZ-8 6.25 μg ml^−1, 48 h",0.58 ± 0.03
same,Growth inhibition rate (%),"[2]; rLZ-8 12.5 μg ml^−1, 48 h",48.5%
same,OD570 nm,"[2]; rLZ-8 12.5 μg ml^−1, 48 h",0.52 ± 0.05
same,Growth inhibition rate (%),"[2]; rLZ-8 25 μg ml^−1, 48 h",69.3%
same,OD570 nm,"[2]; rLZ-8 25 μg ml^−1, 48 h",0.31 ± 0.02
same,Growth inhibition rate (%),"[2]; rLZ-8 50 μg ml^−1, 48 h",75.2%
same,OD570 nm,"[2]; rLZ-8 50 μg ml^−1, 48 h",0.25 ± 0.04
same,Growth inhibition rate (%),"[2]; rLZ-8 100 μg ml^−1, 48 h",81.2%
same,OD570 nm,"[2]; rLZ-8 100 μg ml^−1, 48 h",0.19 ± 0.03
same,Apoptosis rate,"NB4; NB4, rLZ-8 0.1 μg·ml^−1, 24 h",9.23%
same,Apoptosis rate,"NB4; NB4, rLZ-8 0.5 μg·ml^−1, 24 h",27.51%
same,Apoptosis rate,"NB4; NB4, rLZ-8 2.5 μg·ml^−1, 24 h",38.60%
same,growth of peritoneal S180 tumor cells (body weight curve),[3],inhibited mouse peritoneal S180 tumor cells growth
same,growth of peritoneal H22 tumor cells (body weight curve),"[4]; rLZ-8 0.25-1 mg·kg^−1 tail venous injection, 10 days",inhibited the mouse peritoneal H22 tumor cells growth
same,survival of H22 ascites mice,[4]; rLZ-8 groups vs negative control group,survive longer than the negative control group
same,colony forming unit-spleen number,spleen; rLZ-8 0.62 μg·kg^−1,8.9 ± 0.41
same,growth rate,spleen; rLZ-8 0.62 μg·kg^−1,50%
same,index (spleen),spleen; rLZ-8 0.62 μg·kg^−1,0.50 ± 0.10
same,colony forming unit-spleen number,spleen; rLZ-8 1.25 μg·kg^−1,6.3 ± 0.21
same,growth rate,spleen; rLZ-8 1.25 μg·kg^−1,30%
same,index (spleen),spleen; rLZ-8 1.25 μg·kg^−1,0.24 ± 0.13
same,colony forming unit-spleen number,spleen; rLZ-8 2.50 μg·kg^−1,14.3 ± 0.03
same,growth rate,spleen; rLZ-8 2.50 μg·kg^−1,69%
same,index (spleen),spleen; rLZ-8 2.50 μg·kg^−1,0.52 ± 0.12
same,colony forming unit-spleen number,spleen; rLZ-8 5 μg·kg^−1,9.7 ± 0.16
same,growth rate,spleen; rLZ-8 5 μg·kg^−1,54%
same,index (spleen),spleen; rLZ-8 5 μg·kg^−1,0.22 ± 0.09
